Source: patent publication US20240052052A1 (ANTENGENE BIOLOGICS, published 2024)

T1: human CD24 (human, UniProt P25063 27-59, heavily glycosylated, GPI-anchored (as described in the background))
T1 construct: whole, on cells; Target of all cell-based FACS assays; also called hCD24; Cluster of differentiation 24
T1 chain (looked up): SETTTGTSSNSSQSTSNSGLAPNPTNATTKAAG


Tests used:
human CD24 [1] = target: T1, human CD24; assay: FACS, CHOK1-hCD24 cells
Description: (§1) Sequences of some of antibodies from Table 1 were selected to generate and produce human IgG4 chimeric antibodies. […] The protocol for FACs analysis is described as follows: [0536] a. Digested cells using TrypLE™ Express Enzyme (IX); Centrifuged the harvested cells at 400 g for 5 min and discarding the supernatant. [0537] b. Washed the cells 2 times with cold FACS buffer by centrifuging at 400 g for 5 min and discarding the supernatant. [0538] c. […] Incubate at […] for 1 h. [0539] d. Washed the cells twice by using the condition in step b. Resuspended the cells with 100 μl/well diluted 2nd antibody, incubated at 4 degree for 1 h in the dark. [0540] e. Washed the cells twice by using the condition in step b. Resuspended the cells with 100 μl/well cold FACS buffer. Kept the cells in dark for FACS analysis.

human CD24 [2] = target: T1, human CD24; assay: FACS, MDA-MB-468 cells
Description: as §1

human CD24 [3] = target: T1, human CD24; assay: cell-based or functional assay
human CD24 [4] = target: T1, human CD24; assay: FACS, 5637 cells
Description: as §1

human CD24 [5] = target: T1, human CD24; assay: FACS, MCF7 cells
Description: as §1

human CD24 [6] = target: T1, human CD24; assay: FACS, 293F-hCD24 cells
Description: as §1

human CD24 [7] = target: T1, human CD24; assay: FACS, Nalm1 cells
Description: as §1

human CD24 [8] = target: T1, human CD24; assay: FACS, HT-29 cells
Description: as §1

human CD24 [9] = target: T1, human CD24; assay: FACS, H1975 cells
Description: (§2) Screening & Expansion: The subcloning plates were screened by Acumen assay and the subclones with good binding ability were expanded to 24-wells for confirmation tests. The specificity and cross-reactivity of these subclones were confirmed with FACs analysis. […] Fluorescent dye-conjugated secondary antibody was used to detect the binding of the primary antibody with the cells. Median fluorescence intensity (MFI) was measured by FACs analysis.

human CD24 [10] = target: T1, human CD24; assay: FACS, MCF7 cells
Description: as §2

human CD24 [11] = target: T1, human CD24; assay: FACS, Nalm1 cells
Description: as §2

human CD24 [12] = target: T1, human CD24; assay: FACS, H1975 cells
Description: as §1

human CD24 [13] = target: T1, human CD24; assay: FACS, A549 cells
Description: as §1

human CD24 [14] = target: T1, human CD24; assay: FACS, 5637 cells
Description: as §2

human CD24 [15] = target: T1, human CD24; assay: FACS, 293F-hCD24 cells
Description: as §2

Row | EC50 (human CD24 [1]) | Max MFI (human CD24 [1]) | EC50 (human CD24 [2]) | Max MFI (human CD24 [2]) | EC50 (nM), phagocytosis against HT-29 cells (human CD24 [3]) | Max phagocytosis Index (%), phagocytosis against HT-29 cells (human CD24 [3]) | EC50 (human CD24 [4]) | Max MFI (human CD24 [4]) | EC50 (human CD24 [5]) | Max MFI (human CD24 [5]) | EC50 (human CD24 [6]) | Max MFI (human CD24 [6]) | EC50 (human CD24 [7]) | Max MFI (human CD24 [7]) | Binder | other results
1 | > 100 nM | 59300 | 7.39 nM | 71900 | 1.9 nM | 71.2% | 3.42 nM | 20200 | 6.85 nM | 7960 | 3.73 nM | 60400 | 2.78 nM | 77700 | ch100F2E3-hIgG4 (antibody, V domains shown, chimeric) VH: QVQLQQPGAELVRPGSSVKLSCKTSDYTFTSYWMDWVKQRPGQGLEWIGNIYPSDSKTHSNQKFRDKATLTVDKSSSTAYMQLNSLTSEDSAVYYCARRGGYYGYAMDYWGQGTSVTVSS VL: DIVMTQSPSSLSVSAGEKVTMSCKSSQSLLNSGNQDNYLAWYQQKPGQPPKLLIYGASIRESGVPDRFTGSGSGTDFTLTISSVQAEDLAVYYCQNDHSYPYTFGGGTKLEIK | 
2 | 1.71 nM | 22300 | 19.6 nM |  |  |  | 9.47 nM |  | 8.08 nM |  | 11.4 nM | 44100 | 8.88 nM | 58800 | 100F2E3 (antibody, V domains shown, mouse monoclonal antibody) VH: QVQLQQPGAELVRPGSSVKLSCKTSDYTFTSYWMDWVKQRPGQGLEWIGNIYPSDSKTHSNQKFRDKATLTVDKSSSTAYMQLNSLTSEDSAVYYCARRGGYYGYAMDYWGQGTSVTVSS VL: DIVMTQSPSSLSVSAGEKVTMSCKSSQSLLNSGNQDNYLAWYQQKPGQPPKLLIYGASIRESGVPDRFTGSGSGTDFTLTISSVQAEDLAVYYCQNDHSYPYTFGGGTKLEIK | EC50 (human CD24 [8]): 9.55 nM; Max MFI (human CD24 [8]): 2420; FACS MFI (human CD24 [9]): 6900; FACS MFI (human CD24 [2]): 44000; FACS MFI (human CD24 [10]): 7160; FACS MFI (human CD24 [11]): 58800; EC50 (human CD24 [12]): 10 nM; EC50 (human CD24 [13]): 6.58 nM; Max MFI (human CD24 [13]): 8670; FACS MFI (human CD24 [14]): 22100; FACS MFI (human CD24 [15]): 44100
3 |  |  |  |  | 0.157 nM | 78.4% |  |  |  |  |  |  |  |  | ch81A7A10-hIgG4 (antibody, V domains shown) VH: QVQLKESGPGLVAPLQSLSITCTVSGFSLSSYGVSWVRQLPGKGLEWLGVIWGDGSTDYHSTLTSRLSFSKDNSESQVFLKLNSLQTDDTATYYCAIFYGYDEGFAYWGQGTLVTVSA VL: ENVLTQSPAIMSAFLGEKVTMSCRASSTVNYMYWYQQKSDASPKVWIYYTSRLAPGVPARFSGSGSGNSFSLTISSMEGEDAATYYCQQFTSSPLTFGAGTKLELR | 
4 | 2.27 nM | 62100 | 9.07 nM | 56700 | 0.042 nM | 80.4% | 6.44 nM | 42900 | 4.35 nM | 20600 | 3.55 nM | 80900 | 5.8 nM | 109000 | ch33E7E12-hIgG1 (antibody, V domains shown, chimeric) VH: EVKLEESGGGLVQPGGSMKLSCFVSGFTFSNSWMNWVRQSPEKGLEWVAQIQLKSDNYATRYVESVRGRFIISRDDSKSSVSLQMNNLRTEDTGIYYCSSGTDYWGQGTTLTVSS VL: not shown | 
5 | 2.66 nM | 56600 | 6.8 nM | 20100 | 3.25 nM | 33.3% | 7.27 nM | 25600 | 4.75 nM | 16100 | 4.56 nM | 55200 | 11.8 nM | 34400 | ch33E7E12-hIgG4 (antibody, V domains shown, chimeric) VH: EVKLEESGGGLVQPGGSMKLSCFVSGFTFSNSWMNWVRQSPEKGLEWVAQIQLKSDNYATRYVESVRGRFIISRDDSKSSVSLQMNNLRTEDTGIYYCSSGTDYWGQGTTLTVSS VL: not shown | 
6 | 1.86 nM | 24100 | 3.45 nM |  |  |  | 4.37 nM |  | 2.38 nM |  | 2.4 nM | 24200 | 6.2 nM | 45500 | 33E7E12 (antibody, V domains shown, mouse monoclonal antibody) VH: EVKLEESGGGLVQPGGSMKLSCFVSGFTFSNSWMNWVRQSPEKGLEWVAQIQLKSDNYATRYVESVRGRFIISRDDSKSSVSLQMNNLRTEDTGIYYCSSGTDYWGQGTTLTVSS VL: not shown | EC50 (human CD24 [8]): 3.4 nM; Max MFI (human CD24 [8]): 2450; FACS MFI (human CD24 [9]): 6110; FACS MFI (human CD24 [2]): 10900; FACS MFI (human CD24 [10]): 5410; FACS MFI (human CD24 [11]): 45500; EC50 (human CD24 [12]): 8.15 nM; FACS MFI (human CD24 [14]): 14100; FACS MFI (human CD24 [15]): 24200
7 | 3240 nM | 85300 | 5.75 nM | 90800 | 0.098 nM | 76.6% | 2.47 nM | 54100 | 2.31 nM | 25400 | 3.35 nM | 117000 | 1.31 nM | 101000 | ch81A1F8-hIgG4 (antibody, V domains shown, chimeric; also called chAb81A1F8; ch81A1F8-IgG4) VH: EVQLQQSGPELVKPGASVKISCKATGYLFTGYYMNWVKQSPEKSLEWIGEINPNTGDTNNNQKFKAKATMTVDRSSSTAYMQLKRLTSEDSAVYYCVRRDYGTSLDYWGQGTTLTVSS VL: DVQITQSPSYLAASPGETITINCRASKSINKYLAWYQEKPGKTNKLLIHSGSTLQSGIPSRFSGSRSGTDFTLTISNLEPEDFAMYYCQQHNEYPITFGAGTKLELK | 
8 | 35.4 nM | 99500 | 5.44 nM | 89700 |  |  | 2.18 nM | 49900 | 2.01 nM | 22700 | 2.82 nM | 112000 | 1.95 nM | 111000 | ch110D4G4-hIgG4 (antibody, V domains shown, chimeric; also called chAb110D4G4) VH: EVQLQQSGPGLVKPGASVKISCRASGYLFTGYYMNWVKQSPEKSLEWIGEINPNTGDPRYDQKFKAKATLTVDRSSSTAYMHLKSLTSEDSAVYFCARRDYGTSLDYWGQGTTLTVTS VL: DVQITQSPSYLAASPGETITINCRASKSISKYLAWYQEKPGKTNKLLIYSGSTLQSGIPSRFSGSGSGSDFTLTISSLEPEDFAMYYCQQHNEYPLTFGAGTKLELK | 
9 | 3.04 nM | 54100 | 18.7 nM | 54200 | 4.74 nM | 55.2% | 139 nM | 61100 | 83.7 nM | 22800 | 3.7 nM | 57100 | 66.4 nM | 80300 | ch56A7E3-hIgG4 (antibody, V domains shown, chimeric) VH: EVQLQQSGPELVKPGASVKIPCKASGYTFTAYNMDWVKQSHGMSLEWIGDINPINGGTIYNQNFEGKATLTVDKSSSTAYLELRSLTSEDTAVYYCARRGSYYYGSSHYALDFWGQGTSVSVSS VL: DIQMTQITSSLSASLGDRVTITCRASQDISNYLNWYQQKPDGTVKLLIYYTSRLLSGVPSRFSGSGSGTDYSLTISNLEQEDIATYFCQQDHTLPRTFGGGTKLEIR | 
